The record followed here is the DeepSol protein solubility set.

This data set can be described thus: soluble on expression in E. coli; label from the status in PepcDB or PDB records.
Take “MAAASAVSVLLVAAERNRWHRLPSLLLPPRTWVWRQRTMKYTTATGRNITKVLIANRGEIACRVMRTAKKLGVQTVAVYSEADRNSMHVDMADEAYSIGPAPSQQSYLSMEKIIQVAKTSAAQAIHPGCGFLSENMEFAELCKQEGIIFIGPPPSAIRDMGIKSTSKSIMAAAGVPVVEGYHGEDQSDQCLKEHARRIGYPVMIKAVRGGGGKGMRIVRSEQEFQEQLESAWREAKKSFNDDAMLIEKFVDTPRHVEVQVFGDHHGNAVYLFERDCSVQRRHQKIIEEAPAPGIKSEVRKKLGEAAVRAAKAVNYVGAGTVEFIMDSKHNFCFMEMNTRLQVEHPVTEMITGTDLVEWQLRIAAGEKIPLSQEEITLQGHAFEARIYAEDPSNNFMPVAGPLVHLSTPRADPSTRIETGVRQGDEVSVHYDPMIAKLVVWAADRQAALTKLRYSLRQYNIVGLPTNIDFLLNLSGHPEFEAGNVHTDFIPQHHKQLLLSRKAAAKESLCQAALGLILKEKAMTDTFTLQAHDQFSPFSSSSGRRLNISYTRNMTLKDGKNNVAIAVTYNHDGSYSMQIEDKTFQVLGNLYSEGDCTYLKCSVNGVASKAKLIILENTIYLFSKEGSIEIDIPVPKYLSSVSSQETQGGPLAPMTGTIEKVFVKAGDKVKAGDSLMVMIAMKMEHTIKSPKDGTVKKVFYREGAQANRHTPLVEFEEEESDKRESE”: the “soluble on expression in E. coli” value is reported as “soluble”.
With “MAAEDELQLPRLPELFETGRQLLDEVEVATEPAGSRIVQEKVFKGLDLLEKAAEMLSQLDLFSRNEDLEEIASTDLKYLLVPAFQGALTMKQVNPSKRLDHLQRAREHFINYLTQCHCYHVAEFELPKTMNNSAENHTANSSMAYPSLVAMASQRQAKIQRYKQKKELEHRLSAMKSAVESGQADDERVREYYLLHLQRWIDISLEEIESIDQEIKILRERDSSREASTSNSSRQERPPVKPFILTRNMAQAKVFGAGYPSLPTMTVSDWYEQHRKYGALPDQGIAKAAPEEFRKAAQQQEEQEEKEEEDDEQTLHRAREWDDWKDTHPRGYGNRQNMGLEHHHHHH”, the “soluble on expression in E. coli” value was “soluble”.
In the case of “MAAERVFISPAKYVQGKNVITKIANYLEGIGNKTVVIADEIVWKIAGHTIVNELKKGNIAAEEVVFSGEASRNEVERIANIARKAEAAIVIGVGGGKTLDTAKAVADELDAYIVIVPTAASTDAPTSALSVIYSDDGVFESYRFYKKNPDLVLVDTKIIANAPPRLLASGIADALATWVEARSVIKSGGKTMAGGIPTIAAEAIAEKCEQTLFKYGKLAYESVKAKVVTPALEAVVEANTLLSGLGFESGGLAAAHAIHNGFTALEGEIHHLTHGEKVAFGTLVQLALEEHSQQEIERYIELYLCLDLPVTLEDIKLKDASREDILKVAKAATAEGETIHNAFNVTADDVADAIFAADQYAKAYKEKHRK”, the “soluble on expression in E. coli” value is “soluble”.
For “MAAHSSAGLLDYVFPTIVSEYYNQAPTKEGYRFASEEPNGSKREEMGVIMNPGTPDEQLVVMGMYSSYDEKTDTETVTMYTADKDGYKARYQIKNRKLSPGALKSAAGLEHHHHHH”, the “soluble on expression in E. coli” value was “not soluble”.
“MAAKKRGLGRGLDALLGGSSPAKLQEEAVQADRRELQQIPLDLMQRGKYQPRRDMDPQALEELAQSIKAQGVMQPIVVRPIANGRYEIIAGERRWRASQQAGLEKIPALVRDVPDEAAIAMALIENIQREDLNPIEEAAALQRLQQEFQLTQQQVAEAVGKSRATITNLLRLIGLPEEIKTLLSHGDLEMGHARALLGLPAERQVEGARHVVAHGLTVRQTEALVRQWTHAPGKPAGPVKSDPDIARLEQRLAERLGASVQIRHGQKGKGQLVIRYSSLDELQGVLAHIR”: the “soluble on expression in E. coli” value is reported as “not soluble”.
Take “MAANSTRRPIIAFMSDLGTTDDSVAQCKGLMYSICPDVTVVDVCHSMTPWDVEEGARYIVDLPRFFPEGTVFATTTYPATGTTTRSVAVRIKQAAKGGARGQWAGSGAGFERAEGSYIYIAPNNGLLTTVLEEHGYLEAYEVTSPKVIPEQPEPTFYAREMVAIPSAHLAAGFPLSEVGRPLEDHEIVRFNRPAVEQDGEALVGVVSAIDHPFGNVWTNIHRTDLEKAGIGYGARLRLTLDGVLPFEAPLTPTFADAGEIGNIAIYLNSRGYLSIARNAASLAYPYHLKEGMSARVEAR”: the “soluble on expression in E. coli” value was “soluble”.
In the case of “MAATSGTDEPVSGELVSVAHALSLPAESYGNDPDIEMAWAMRAMQHAEVYYKLISSVDPQFLKLTKVDDQIYSEFRKNFETLRIDVLDPEELKSESAKEKWRPFCLKFNGIVEDFNYGTLLRLDCSQGYTEENTIFAPRIQFFAIEIARNREGYNKAVYISVQDKEGEKGVNNGGEKRADSGEEENTKNGGEKGADSGEEKEEGINREDKTDKGGEKGKEADKEINKSGEKAM”, the “soluble on expression in E. coli” value is recorded as “soluble”.
As for “MAATVVIVAWIANRPPASSHEPSPTPNTQLAEQPLIGLGGGVTVRELTQDTPFSLVALTGDLAGTSARVRAKRPDGDWGPWYQTEYETEPRDPAGTDGSVELGGLNPGPRSTDPVFVGTTTTVQVAVTRPIDAPITQPPAGRPPNDLLDSGLGYRPATKEQPFGQNISAILISPPQAPPGTQWTPPTAVTMAGQPPAIISRAEWGADESLRCETPEYDRGVRAAVVHHTAGSNDYSPLESAGIVKAIYTYHSKTLGWCDIAYNALVDKYGQVFEGSAGGLTKPVEGFHTGGFNRNTWGVAMIGNFDDVAPTPIQIRTVGRLLGWRLGMDDVDPRSMVDLQSAGSSYTTFPGGAIARLPAIFTHRDVGNTDCPGNAAYAVMDEIRDIAAHFNDPPEELIKALEGGAIYQRWQALGGMNSALGAPTSPEADAADGARYATFAKGAMYWSPVTDAQPITGAIYEAWASQSYERGPLGLPTSAEIQEPLQITQNFQHGTLNFERLTGNVTEVVDGITTPLATRPPSGPTVPPEHFTLPTHPIT”, the “soluble on expression in E. coli” value is “soluble”.
The value for “MAAVKDSCGKGEMATGNGRRLHLGIPEAVFVEDVDSFMKQPGNETADTVLKKLDEQYQKYKFMELNLAQKKRRLKGQIPEIKQTLEILKYMQKKKESTNSMETRFLLADNLYCKASVPPTDKVCLWLGANVMLEYDIDEAQALLEKNLSTATKNLDSLEEDLDFLRDQFTTTEVNMARVYNWDVKRRNKDDSTKNKA” was “not soluble”; that for “MACPEATFFHRAGWKQVIEQAFGHKTWFLYIEEGGCIQGVLPLAEIDSLLFGHSLSALPFCVYGGIAAISDDARIRLDQAAQMLATYLKVDYLEYRHLHPFHHDWPTKDLYVTFRKTMDSDVEQNMLAIPRKQRAMVRKGMKYELQSYLDQDTDHFFRAYSASVHRLGTPVFSRKYFRLLKSVFAEDCELLIITKDENVVSAVMSFYFRDEVLPYYGGGTDAARDLAGNDFMYWELMRRACERGYRVFDFGRSKRGTGSYSFKKNWGFEPQPLFYEYQLHQAKTIPEHNPLNPKYQLFIKAWQKMPLALANMLGPHIVKNLG” was “not soluble”.
Turning to “MADADLVMTGTVLTVDDARPTAEAIAVADGRVIAVGDRSEVAGLVGANTRVIDLGAGCVMPGFVEAHGHPLLEAVVLSDRFVDIRPVTMRDADDVVAAIRGEVARRGPAGAYLVGWDPLLQSGLGEPTLTWLDSLAPNGPLVIIHNSGHKAYFNSHAAWLNGLTRDTADPKGAKYGRDGNGELDGTAEEIGAILPLLAGVADPSNFGAMLRAECARLNRAGLTTCSEMAFDPGYRPMVEAVRAELTVRLCTYEISNARMCTDATPGQGDDMLRQVGIKIWVDGSPWVGNIDLTFPYLDTPATRAIGVPPGSRGCANYTREQLAEIVGAYFPRGWQIACHVHGDGGVDTILDVYEEALRRNPRDDHRLRLEHVGAIRPDQLRRAAELGVTCSIFVDQIHYWGDVIVDDLFGAQRGSRWMPAGSAVAAGMRISLHNDPPVTPEEPLRNISVAATRVAPSGRVLAPEERLTVEQAIRAQTIDAAWQLFAEDAIGSLQVGKYADMVVLSADPRTVPPEQIADLAVRATFLAGRQVYRRLEHHHHHH”, the “soluble on expression in E. coli” value is on record as “not soluble”.
Then “MADDGPIIEEIAEKNGRVARIMQRLQHDTQRVTSVPGFNTSATGYADLIALLDQYKNDLEAVGFNDLEQARRRAPSVDITVGSNSTNLVDYSHGRHDMPSHRRHDSSDEEITAANSHHQSPINVGNRNDTDGTNGRNGSRAGSSSSDRVRMIAGRNRISKTRRYRPGQKALEEIRKYQESEDLLIPKAPFARLVREIMQTSTPFSSDLRIRSDAINALQEASEALLVQMFDGSSLISAHSKRATLTTTDVQLYRRLCLPNL”, with “not soluble”.
